Test results from patent publication US6683162B2, “Targeted alpha particle therapy using actinium-255 conjugates” (Sloan Kettering Institute of Cancer Research, priority 2000, dated 2004).

Experiments:
[1] = Toxicity of [225Ac]DOTA-HuM195 i.v. in cynamologous monkeys; assay type: in vivo, cynamologous monkey; settings: 9 months out
Protocol: Two male cynamologous monkeys (3-5 kg) were injected i.v. 9 months ago with an initial 0.002-0.005 mCi dose of [225Ac]DOTA-HuM195 per monkey and then 6 weeks later with a 0.017-0.020 mCi dose of [225Ac]DOTA-HuM195. Animals are followed by serial blood sampling and observation of activity and appearance as a function of time.

LNCaP tumor xenograft = assay: Biodistribution of 225Ac/221Fr/213Bi in LNCaP tumor bearing mice; settings: for A2(o)/A2(eq) Bi-213 at sacrifice time / A2(o)/A2(eq) Fr-221 at sacrifice time / % ID/g Ac-225 / % ID/g Bi-213 / % ID/g Fr-221: 48 hour, mean; for A2(o)/A2(eq) Bi-213 at sacrifice time / A2(o)/A2(eq) Fr-221 at sacrifice time: daughter/parent ratio
Protocol: An [225Ac]DOTA-J591 biodistribution experiment was carried-out using a male athymic nude (8-12 weeks old) mouse (Taconic, Germantown, N.Y.) model with an i.m. xenograft of 5E6 LNCaP tumor cells in Matrigel (Becton Dickinson Labware, Bedford Mass.) implanted in the right hind leg. The tumors were allowed to grow for 4 weeks and then the mice were separated into two groups (n=12 per group). One group received approximately 0.55 mL of [225Ac]DOTA-J591 (350 nCi ^225Ac on 0.0035 mg J591) and the other group received the irrelevant control [225Ac]DOTA-HuM195 (350 nCi 225Ac on 0.0026 mg HuM195) via i.p. injection. Three to four animals from each group were sacrificed at 48 h and 72 h post injection. Blood and tissue samples including: heart, kidneys, lung, spleen, liver, stomach, intestine, and tumor were harvested, weighed and counted using a Packard Cobra Gamma Counter (Packard Instrument Co., Inc., Meriden, Conn.) with two energy windows, ^221Fr (185-250 KeV window) and ^213Bi (360-480 window). The percent of the injected dose per gram of tissue (% ID/g) was determined by measuring the activity in […] aliquots of each respective [^225Ac]mAb injectate in triplicate. After the initial 48 h time point data was analyzed, attention was focused on collection of blood, tumor, heart, kidney and small intestine samples as the need to rapidly sacrifice, harvest, and count was necessary in order to measure ^221Fr in the samples.
Using known methods (28), values of A2(o)/A2(eq) were determined for each tissue sample.

[2] = tested on: antigen negative cells (Daudi); assay: Cell based immunoreactivity assay, antigen negative cells; assay type: binding; settings: on ice
Protocol: A cell based immunoreactivity assay (binding of labeled antibody to antigen excess) was used to determine the percentage of HuM195 that retained its immunoreactivity after conjugation and purification. The assay was conducted with antigen positive cells (HL60, available from American Tissue Culture Collection [ATCC]) and antigen negative cells (Daudi, ATCC).
The cells were centrifuged, the supernatant removed and the cells resuspended to a density of 10^8 cells/ml in 2% w/v bovine serum albumin in phosphate buffered saline, pH 7.2 (PBS). Aliquots of cell suspension ([…]) were transferred to microcentrifuge tubes placed on ice to which purified ^225Ac-HuM195-DOTA (3 ng) was added. The cell suspensions were incubated for 30 min, centrifuged and the supernatant containing any unbound ^225Ac-HuM195-DOTA was transferred to a second microcentrifuge tube of cell suspension. The second tube was incubated on ice for 30 min. The first cell pellets were washed with PBS and the cells and washes saved for γ emission counting. The second set of cell suspensions were centrifuged, the supernatant removed and the pellets were washed with PBS. The set of supernate, cell pellets and washes were saved for counting. The percentage of radioactivity that was associated with the cells was then determined.

Daudi lymphoma cells = assay: In vivo efficacy against disseminated Daudi lymphoma; set-up: species or system mouse; settings: irrelevant control, day 1
Protocol: Daudi lymphoma cells are disseminated into 8-12 week old female Scid mice via an intravenous (i.v.) injection of 5E6 Daudi tumor cells in the tail vein; mice experience a 100% tumor take rate in the model (20). In this lymphoma therapy experiment mice are treated 1 day post-tumor dissemination via intravenous injection. Animals are monitored for signs of illness and hind leg paralysis or inability to breathe or ambulate at which time they are sacrificed.
In the first experiment with this disseminated model, mice are treated 1 day post-tumor dissemination with a single dose of labeled specific [225Ac]B4 at three different dose levels, irrelevant control [225Ac]HuM195 at two dose levels, or a mass of unlabeled B4 matching the antibody mass dose administered in the highest dose level radiolabeled groups. Control groups receiving the irrelevant [225Ac]HuM195 have median survival times from xenograft of 43 days and 36 days. Mice receiving 0.003 mg unlabeled B4 per mouse have a median survival time of 57 days from xenograft. The mice receiving a single injection of [225Ac]B4 show dose-related increases in median survival times from xenograft to 165, 137 and 99 days, respectively. The dose response of [225Ac]B4 is significant with P=0.05. […]

Substance: 225Ac-HuM195-DOTA
- evidence of toxicity ([1]; i.v. 0.002-0.005 mCi then 0.017-0.020 mCi 6 weeks later): no evidence of toxicity
- hepatic, renal and hematopoietic function ([1]; i.v.): did not change
- 225Ac uptake in the liver (LNCaP tumor xenograft; 48 h, LNCaP tumor bearing mice, i.p.): less than 8%
- A2(o)/A2(eq) Bi-213 at sacrifice time (LNCaP tumor xenograft; Blood): 0.04
- A2(o)/A2(eq) Fr-221 at sacrifice time (LNCaP tumor xenograft; Blood): 0.13
- % ID/g Ac-225 (LNCaP tumor xenograft; Blood): 13.5 % ID/g
- % ID/g Bi-213 (LNCaP tumor xenograft; Blood): 0.55 % ID/g
- % ID/g Fr-221 (LNCaP tumor xenograft; Blood): 0.18 % ID/g
- A2(o)/A2(eq) Bi-213 at sacrifice time (LNCaP tumor xenograft; Heart): 0.99
- A2(o)/A2(eq) Fr-221 at sacrifice time (LNCaP tumor xenograft; Heart): 1.6
- % ID/g Ac-225 (LNCaP tumor xenograft; Heart): 3.9 % ID/g
- % ID/g Bi-213 (LNCaP tumor xenograft; Heart): 3.9 % ID/g
- % ID/g Fr-221 (LNCaP tumor xenograft; Heart): 6.1 % ID/g
- A2(o)/A2(eq) Bi-213 at sacrifice time (LNCaP tumor xenograft; Kidneys): 10.0
- A2(o)/A2(eq) Fr-221 at sacrifice time (LNCaP tumor xenograft; Kidneys): 16.8
- % ID/g Ac-225 (LNCaP tumor xenograft; Kidneys): 4.7 % ID/g
- % ID/g Bi-213 (LNCaP tumor xenograft; Kidneys): 46.5 % ID/g
- % ID/g Fr-221 (LNCaP tumor xenograft; Kidneys): 72.8 % ID/g
- A2(o)/A2(eq) Bi-213 at sacrifice time (LNCaP tumor xenograft; Liver): 0.87
- A2(o)/A2(eq) Fr-221 at sacrifice time (LNCaP tumor xenograft; Liver): 0.70
- % ID/g Ac-225 (LNCaP tumor xenograft; Liver): 7.7 % ID/g
- % ID/g Bi-213 (LNCaP tumor xenograft; Liver): 6.5 % ID/g
- % ID/g Fr-221 (LNCaP tumor xenograft; Liver): 5.5 % ID/g
- A2(o)/A2(eq) Bi-213 at sacrifice time (LNCaP tumor xenograft; Sm. Int.): 4.0
- A2(o)/A2(eq) Fr-221 at sacrifice time (LNCaP tumor xenograft; Sm. Int.): 13.3
- % ID/g Ac-225 (LNCaP tumor xenograft; Sm. Int.): 1.6 % ID/g
- % ID/g Bi-213 (LNCaP tumor xenograft; Sm. Int.): 6.3 % ID/g
- % ID/g Fr-221 (LNCaP tumor xenograft; Sm. Int.): 18.7 % ID/g
- A2(o)/A2(eq) Bi-213 at sacrifice time (LNCaP tumor xenograft; Tumor): 0.87
- A2(o)/A2(eq) Fr-221 at sacrifice time (LNCaP tumor xenograft; Tumor): 0.83
- % ID/g Ac-225 (LNCaP tumor xenograft; Tumor): 1.60 % ID/g
- % ID/g Bi-213 (LNCaP tumor xenograft; Tumor): 5.0 % ID/g
- % ID/g Fr-221 (LNCaP tumor xenograft; Tumor): 4.6 % ID/g
- activity retained by the cells (immunoreactivity) [2]: 2%
- median survival time from xenograft (Daudi lymphoma cells; first-named of two dose levels (5550 Bq per FIG. 8A, order assumed)): 43 days
- median survival time from xenograft (Daudi lymphoma cells; second-named of two dose levels (1850 Bq per FIG. 8A, order assumed)): 36 days
